Laboratory results: publication doi:10.1101/2024.11.13.623522 (bioRxiv, 2024)

Target: T1, GST-tagged Shu (Shu-GST) (Drosophila, UniProt Q9W1I9 1-455)
T1 sequence (looked up): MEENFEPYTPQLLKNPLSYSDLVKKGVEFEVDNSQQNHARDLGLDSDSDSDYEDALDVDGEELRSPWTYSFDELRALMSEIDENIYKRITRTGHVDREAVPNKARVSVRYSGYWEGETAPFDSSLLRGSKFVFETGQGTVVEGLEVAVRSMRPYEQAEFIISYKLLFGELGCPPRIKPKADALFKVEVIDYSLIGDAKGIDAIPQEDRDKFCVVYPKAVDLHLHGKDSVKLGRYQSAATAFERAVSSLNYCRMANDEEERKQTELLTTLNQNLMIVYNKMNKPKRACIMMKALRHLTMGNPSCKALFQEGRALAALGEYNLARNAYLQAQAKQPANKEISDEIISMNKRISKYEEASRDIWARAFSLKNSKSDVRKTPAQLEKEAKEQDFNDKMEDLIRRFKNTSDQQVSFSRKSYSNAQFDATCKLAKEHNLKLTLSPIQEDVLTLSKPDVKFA
Assay: pull-down

B1: FLAG-tagged Armi S769I mutant, recombinant (natural protein, Drosophila, UniProt Q6J5K9 1-1188, looked up)
chain: MFTYVSKFFTNPDRNREDILESLDRENSFLDQKLMEEKMDQQLKANPNEINGVLSNKIAELTHGLSEMDVSKESSCTARKGVITSLDGDRGVIDKDVLFETKVAEDIILDLHVGCVVEYLTFTTGEAMRVVKVKSILEHSWEDTSQKEIEKAVDNLKNEKPTFFNTETRSVLGLISQRLASSIDVETEYGQLTVELDNIEMNFIPTNGDRVRLECNIQLDDGFVDKQGEILEVTKLFPTRIQEGEKCIVERVYVHMVVLGPETYILKTDLPTGTDLHLGDIVLADLIECQYSKFTRRAIKITPLEKNFGATKLTQQSSMGSSGSGKAVTVTGVNRFITAELWQKESVSLKLTNNLNRTLRLESITVCNDSESQLSVVSPLESKEISSGSEITVTFEIHTQFLGEAIEKYVLNFDLLKVRRVFTVIVCKTKEEVAEAEKRMIAAEALMAPGRNSQERSRFYANQVWCNKVDVIPGQQIVTKRRFVALRLGCFEVPKELRQICLTSERRQEMIKAIEQHYSFLTEPLSIKTYMHRFRLLLHLEEIECFVNFRNYDRDRAHFLRDGEFLTLQIENLAERRPSLVIGDTLRVINPWSDPDSQTTKSYEGIIHKVLFDRILLKFHSSFQEKYNGEDYRLEFYFSRYSFRKQHHAISKIVGVMGEDFLFPSKVTKRENPQLDVYMKDDDMYLYDSKLEWYNQSLNSIQKRAVFNILRGEAENIPYVLFGPPGSGKTMTLIETLLQLVRNLPGARILVGTPSNSSADLVTKRLIDIKALLQGDFIRLVSYNQVEKDLIPPEIMSYCATSDVGAVGSCEDKMMVTESGLKLRCQAKFIGTHRITISTCTTLGNFLQLGFPAGHFTHVLFDEAGQCTEPETMVPIVMLTKKRSQVVLSGDPRQLQSIVTSRIASKMGFSISFLERLLERSPYRKDLQRFPESSGYNPLVLTKLLYNYRALPSIMSIYSRLFYDDELIPVLSEKDSRESRLLSKLRCVFESEKDIPQAHGTFFYGIIGENRQNNDSPSWFNPQEVREVFLMTIALYRANVTADQIGIITPYQKQVKMLRSMFIGTDVVMPKIGSVEEFQGQERDIILISTVRSSEEILRMDARFSLGFVRCSKRLNVAVSRARAMMIIFGNPHLLAVDECWRQLILFCVKNNAYFGCDLPQMVINQKDEVPVCLETFVPSLNTTDDLN
- pull-down efficiency relative to Armi WT: ~1.5 fold
